From the supplement of paper PMC10724198
± gives the standard deviation of the averaged measurements.

Columns and labels:
Saccharomyces cerevisiae [1] = test: protein stability index of tFT-peptide fusion (C-terminal peptide) (PSI (0-1 scale)); higher = more stable (slower turnover); settings: genetic background: wild type; temperature: 30 C
Saccharomyces cerevisiae [2] = test: as above
Procedure: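 MPS profiling in S. cerevisiae of the tFT-X12 degron library: putative degron peptides plus stable controls, 12 aa, fused to the C-terminus of a sfGFP-mCherry timer. Cells are FACS-sorted into 8 mCherry/sfGFP bins and deep-sequenced. PSI runs from 0 (unstable) to 1 (stable). Backgrounds are wild type, das1Δ and doa10Δ at 30 °C, and wild type, das1Δ, cdc34-1 and cdc53-1 at 37 °C; 2-3 technical replicates each.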

[3] = genetic background: cdc34-1, temperature: 37 C
[4] = genetic background: cdc53-1, temperature: 37 C
[5] = genetic background: das1 deletion, temperature: 30 C
[6] = genetic background: das1 deletion, temperature: 37 C
[7] = genetic background: doa10 deletion, temperature: 30 C
[8] = genetic background: wild type, temperature: 30 C
[9] = genetic background: wild type, temperature: 37 C
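Also: PSI is a weighted mean of sequencing reads over stability bins, variants kept only with over 10 reads, mCherry proximal and sfGFP distal, peptide attached via GGGS linker.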

Sequence | protein stability index (Saccharomyces cerevisiae [1]) | protein stability index (Saccharomyces cerevisiae [2]; [3]) | protein stability index (Saccharomyces cerevisiae [2]; [4]) | protein stability index (Saccharomyces cerevisiae [2]; [5]) | protein stability index (Saccharomyces cerevisiae [2]; [6]) | protein stability index (Saccharomyces cerevisiae [2]; [7]) | protein stability index (Saccharomyces cerevisiae [2]; [8]) | protein stability index (Saccharomyces cerevisiae [2]; [9])
GTLSSSLIKSCA | 0.52 ± 0.057 | 0.602 ± 0.036 | 0.616 ± 0.017 | 0.488 ± 0.027 | 0.637 ± 0.013 | 0.481 ± 0.01 | 0.499 ± 0.029 | 0.614 ± 0.0095
GTVRGDLSLWLC | 0.349 ± 0.11 | 0.622 ± 0.047 | 0.745 ± 0.0076 | 0.681 ± 0.0076 | 0.765 ± 0.015 | 0.156 ± 0.012 | 0.17 ± 0.031 | 0.274 ± 0.023
GVGTFRLCVLLV | 0.197 ± 0.02 | 0.233 ± 0.004 | 0.2473 ± 0.0021 | 0.273 ± 0.029 | 0.3697 ± 0.0013 | 0.156 ± 0.022 | 0.138 ± 0.0077 | 0.128 ± 0.0081
GVQVIWGWARVF | 0.0923 ± 0.032 | 0.51 ± 0.14 | 0.595 ± 0.019 | 0.507 ± 0.042 | 0.654 ± 0.019 | 0.0987 ± 0.029 | 0.0712 ± 0.032 | 0.131 ± 0.036
GVVVWWCYFVFV | 0.257 ± 0.03 | 0.181 ± 0.012 | 0.298 ± 0.034 | 0.183 ± 0.031 | 0.3631 ± 0.00064 | 0.161 ± 0.0072 | 0.161 ± 0.021 | 0.321 ± 0.0065
GWLFTFTCAFRV | 0.479 ± 0.058 | 0.429 ± 0.01 | 0.441 ± 0.014 | 0.443 ± 0.027 | 0.482 ± 0.012 | 0.4984 ± 0.0014 | 0.428 ± 0.016 | 0.4672 ± 0.0025
GWRVWVQIIWGR | 0.352 ± 0.028 | 0.316 ± 0.013 | 0.409 ± 0.0041 | 0.293 ± 0.027 | 0.441 ± 0.018 | 0.282 ± 0.0029 | 0.286 ± 0.02 | 0.40261 ± 8.5e-05
GYGAVHWWFWLF | 0.31 ± 0.027 | 0.604 ± 0.052 | 0.6675 ± 0.0043 | 0.587 ± 0.04 | 0.7066 ± 0.006 | 0.1934 ± 0.0013 | 0.214 ± 0.026 | 0.3761 ± 0.0034
GYVCVGLVYSVA | 0.337 ± 0.072 | 0.372 ± 0.041 | 0.411 ± 0.017 | 0.267 ± 0.038 | 0.463 ± 0.0037 | 0.216 ± 0.0035 | 0.249 ± 0.038 | 0.433 ± 0.0093
HCINYGRIQFCA | 0.388 ± 0.051 | 0.596 ± 0.028 | 0.71 ± 0.05 | 0.596 ± 0.013 | 0.714 ± 0.024 | 0.245 ± 0.012 | 0.253 ± 0.034 | 0.532 ± 0.06
HEVHATVPNQIM | 0.697 ± 0.011 | 0.688 ± 0.026 | 0.7487 ± 0.0024 | 0.638 ± 0.01 | 0.736 ± 0.0095 | 0.649 ± 0.018 | 0.653 ± 0.02 | 0.7114 ± 0.0045
HFRFSRYIRWVL | 0.237 ± 0.013 | 0.619 ± 0.08 | 0.7004 ± 0.0021 | 0.653 ± 0.02 | 0.746 ± 0.0079 | 0.139 ± 0.0018 | 0.151 ± 0.016 | 0.332 ± 0.0057
HFSCLLIILGFC | 0.331 ± 0.026 | 0.275 ± 0.01 | 0.395 ± 0.078 | 0.268 ± 0.04 | 0.448 ± 0.0081 | 0.216 ± 0.005 | 0.267 ± 0.023 | 0.459 ± 0.092
HIVWVLQRAFRG | 0.509 ± 0.039 | 0.511 ± 0.058 | 0.516 ± 0.0086 | 0.493 ± 0.021 | 0.504 ± 0.02 | 0.506 ± 0.038 | 0.488 ± 0.016 | 0.485 ± 0.018
HLCVLWVLLLCF | 0.333 ± 0.011 | 0.286 ± 0.032 | 0.323 ± 0.0031 | 0.26 ± 0.025 | 0.383 ± 0.011 | 0.289 ± 0.015 | 0.246 ± 0.019 | 0.368 ± 0.024
HLFDMFFFLLHV | 0.441 ± 0.027 | 0.514 ± 0.047 | 0.5932 ± 0.0025 | 0.488 ± 0.022 | 0.611 ± 0.0073 | 0.343 ± 0.0048 | 0.33 ± 0.022 | 0.504 ± 0.01
HLGAAVYVFSVL | 0.477 ± 0.006 | 0.664 ± 0.086 | 0.707 ± 0.019 | 0.551 ± 0.0072 | 0.705 ± 0.016 | 0.399 ± 0.071 | 0.424 ± 0.0089 | 0.64 ± 0.03
HMSAISLIGALA | 0.519 ± 0.029 | 0.595 ± 0.051 | 0.575 ± 0.04 | 0.436 ± 0.06 | 0.595 ± 0.011 | 0.392 ± 0.0086 | 0.434 ± 0.02 | 0.5673 ± 0.0013
HNLYCKILQLCV | 0.446 ± 0.0057 | 0.419 ± 0.013 | 0.49 ± 0.12 | 0.304 ± 0.049 | 0.497 ± 0.04 | 0.242 ± 0.017 | 0.294 ± 0.025 | 0.449 ± 0.03
HPPRSLTLASSS | 0.127 ± 0.029 | 0.696 ± 0.039 | 0.75 ± 0.014 | 0.661 ± 0.012 | 0.754 ± 0.025 | 0.65 ± 0.019 | 0.6427 ± 0.0058 | 0.7137 ± 0.00092
HRCLFPLEYLLI | 0.473 ± 0.052 | 0.613 ± 0.055 | 0.72 ± 0.015 | 0.551 ± 0.021 | 0.701 ± 0.026 | 0.303 ± 0.022 | 0.344 ± 0.017 | 0.503 ± 0.018
HSLLLWLLVFFR | 0.413 ± 0.036 | 0.441 ± 0.013 | 0.511 ± 0.01 | 0.388 ± 0.027 | 0.516 ± 0.0056 | 0.3609 ± 0.0034 | 0.367 ± 0.018 | 0.508 ± 0.012
HSVPPYPTPPPF | 0.463 ± 0.002 | 0.668 ± 0.054 | 0.739 ± 0.0011 | 0.337 ± 0.041 | 0.616 ± 0.0097 | 0.302 ± 0.016 | 0.372 ± 0.016 | 0.586 ± 0.025
HVLLSSSASIVV | 0.536 ± 0.058 | 0.623 ± 0.015 | 0.6613 ± 0.0046 | 0.534 ± 0.019 | 0.6449 ± 0.0028 | 0.534 ± 0.03 | 0.529 ± 0.026 | 0.63 ± 0.047
HYATLMSLRKVL | 0.27 ± 0.047 | 0.6682 ± 0.0023 | 0.716 ± 0.036 | 0.64 ± 0.022 | 0.7219 ± 0.0017 | 0.128 ± 0.0077 | 0.137 ± 0.022 | 0.316 ± 0.032
IAYCDNGFLVVV | 0.521 ± 0.077 | 0.636 ± 0.037 | 0.676 ± 0.028 | 0.548 ± 0.023 | 0.695 ± 0.019 | 0.539 ± 0.013 | 0.563 ± 0.012 | 0.652 ± 0.012
IDTSRAATLLPA | 0.739 ± 0.012 | 0.675 ± 0.021 | 0.7136 ± 0.0016 | 0.606 ± 0.017 | 0.722 ± 0.011 | 0.611 ± 0.016 | 0.631 ± 0.028 | 0.7161 ± 0.0029
IFWAKRNLVRVT | 0.363 ± 0.028 | 0.382 ± 0.0086 | 0.421 ± 0.011 | 0.307 ± 0.029 | 0.478 ± 0.0088 | 0.201 ± 0.0051 | 0.251 ± 0.025 | 0.402 ± 0.0096
IGKEKRMKVIQI | 0.516 ± 0.065 | 0.65 ± 0.025 | 0.69 ± 0.022 | 0.624 ± 0.018 | 0.735 ± 0.019 | 0.433 ± 0.0078 | 0.477 ± 0.0096 | 0.615 ± 0.013
IKKKRNKKKMIM | 0.505 ± 0.042 | 0.653 ± 0.093 | 0.727 ± 0.011 | 0.655 ± 0.026 | 0.731 ± 0.026 | 0.316 ± 0.035 | 0.322 ± 0.048 | 0.597 ± 0.013
